In patent US20220010021A1 (Sanofi, published 2022):

T1: human beta-Klotho (KLB) (human, UniProt Q86Z14 53-997)
T1 construct: also called human KLB
T1 sequence (looked up): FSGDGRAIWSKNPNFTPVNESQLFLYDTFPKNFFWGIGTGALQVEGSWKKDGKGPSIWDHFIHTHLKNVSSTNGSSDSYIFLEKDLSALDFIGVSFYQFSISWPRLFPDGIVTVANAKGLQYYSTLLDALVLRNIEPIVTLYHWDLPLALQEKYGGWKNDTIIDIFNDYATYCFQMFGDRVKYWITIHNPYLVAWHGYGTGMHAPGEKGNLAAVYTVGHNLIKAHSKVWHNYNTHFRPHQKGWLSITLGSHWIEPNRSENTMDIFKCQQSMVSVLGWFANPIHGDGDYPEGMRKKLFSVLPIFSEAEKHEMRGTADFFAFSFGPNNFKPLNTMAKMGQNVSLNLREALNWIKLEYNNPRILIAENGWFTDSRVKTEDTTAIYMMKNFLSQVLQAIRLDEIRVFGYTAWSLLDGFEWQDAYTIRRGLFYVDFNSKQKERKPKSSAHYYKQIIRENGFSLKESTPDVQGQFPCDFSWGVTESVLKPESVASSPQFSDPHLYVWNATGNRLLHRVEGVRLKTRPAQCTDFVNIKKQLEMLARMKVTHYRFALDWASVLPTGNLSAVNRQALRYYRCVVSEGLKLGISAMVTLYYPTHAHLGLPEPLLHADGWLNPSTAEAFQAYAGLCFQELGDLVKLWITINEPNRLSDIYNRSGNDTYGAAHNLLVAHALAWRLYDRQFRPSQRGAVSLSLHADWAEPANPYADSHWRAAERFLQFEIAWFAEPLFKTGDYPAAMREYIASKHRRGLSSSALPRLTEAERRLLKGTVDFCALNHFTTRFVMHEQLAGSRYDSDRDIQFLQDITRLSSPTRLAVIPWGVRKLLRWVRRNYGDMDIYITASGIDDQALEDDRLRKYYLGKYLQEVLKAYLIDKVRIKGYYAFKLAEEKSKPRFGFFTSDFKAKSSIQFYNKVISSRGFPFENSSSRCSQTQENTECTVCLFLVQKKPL


Legend:
human beta-Klotho (KLB) = target: T1, human beta-Klotho (KLB); assay: BLI off-rate screen (Octet), Ab captured via Fc;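 note: antibody supernatants applied at 25 µg/mL, dissociation monitored over 1800 s in D-PBS with 0.1% BSA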
[1] = target: human FGFR1c/KLB cell surface receptor complex on iLite FGF21 reporter cells (human, UniProt P11362 22-822; Q86Z14 1-1044); assay: cell-based or functional assay
human FGFR1c/KLB cell surface receptor complex on iLite FGF21 reporter cells, sequence (P11362 22-822, chain 1 of 2): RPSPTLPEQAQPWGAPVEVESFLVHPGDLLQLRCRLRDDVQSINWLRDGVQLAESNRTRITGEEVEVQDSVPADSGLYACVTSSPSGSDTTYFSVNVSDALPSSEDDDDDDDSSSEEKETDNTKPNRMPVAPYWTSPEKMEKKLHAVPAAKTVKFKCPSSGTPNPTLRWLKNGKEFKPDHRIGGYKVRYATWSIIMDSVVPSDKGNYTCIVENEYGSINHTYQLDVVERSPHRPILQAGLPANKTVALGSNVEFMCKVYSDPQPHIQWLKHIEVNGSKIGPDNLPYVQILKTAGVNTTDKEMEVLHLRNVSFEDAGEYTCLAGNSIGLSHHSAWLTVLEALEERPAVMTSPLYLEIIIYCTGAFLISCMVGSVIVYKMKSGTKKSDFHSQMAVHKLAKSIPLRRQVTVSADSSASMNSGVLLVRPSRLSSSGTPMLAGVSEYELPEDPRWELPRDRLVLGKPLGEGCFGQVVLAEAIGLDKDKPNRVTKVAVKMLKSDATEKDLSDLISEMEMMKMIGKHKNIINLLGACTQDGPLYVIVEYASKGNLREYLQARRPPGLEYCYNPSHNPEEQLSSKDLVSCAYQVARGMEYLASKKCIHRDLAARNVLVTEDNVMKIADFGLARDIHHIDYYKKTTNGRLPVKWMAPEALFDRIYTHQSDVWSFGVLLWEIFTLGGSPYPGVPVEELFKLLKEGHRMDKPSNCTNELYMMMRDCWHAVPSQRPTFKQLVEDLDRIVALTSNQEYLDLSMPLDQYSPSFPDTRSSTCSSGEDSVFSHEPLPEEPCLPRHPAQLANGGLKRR
human FGFR1c/KLB cell surface receptor complex on iLite FGF21 reporter cells, sequence (Q86Z14 whole entry, chain 2 of 2): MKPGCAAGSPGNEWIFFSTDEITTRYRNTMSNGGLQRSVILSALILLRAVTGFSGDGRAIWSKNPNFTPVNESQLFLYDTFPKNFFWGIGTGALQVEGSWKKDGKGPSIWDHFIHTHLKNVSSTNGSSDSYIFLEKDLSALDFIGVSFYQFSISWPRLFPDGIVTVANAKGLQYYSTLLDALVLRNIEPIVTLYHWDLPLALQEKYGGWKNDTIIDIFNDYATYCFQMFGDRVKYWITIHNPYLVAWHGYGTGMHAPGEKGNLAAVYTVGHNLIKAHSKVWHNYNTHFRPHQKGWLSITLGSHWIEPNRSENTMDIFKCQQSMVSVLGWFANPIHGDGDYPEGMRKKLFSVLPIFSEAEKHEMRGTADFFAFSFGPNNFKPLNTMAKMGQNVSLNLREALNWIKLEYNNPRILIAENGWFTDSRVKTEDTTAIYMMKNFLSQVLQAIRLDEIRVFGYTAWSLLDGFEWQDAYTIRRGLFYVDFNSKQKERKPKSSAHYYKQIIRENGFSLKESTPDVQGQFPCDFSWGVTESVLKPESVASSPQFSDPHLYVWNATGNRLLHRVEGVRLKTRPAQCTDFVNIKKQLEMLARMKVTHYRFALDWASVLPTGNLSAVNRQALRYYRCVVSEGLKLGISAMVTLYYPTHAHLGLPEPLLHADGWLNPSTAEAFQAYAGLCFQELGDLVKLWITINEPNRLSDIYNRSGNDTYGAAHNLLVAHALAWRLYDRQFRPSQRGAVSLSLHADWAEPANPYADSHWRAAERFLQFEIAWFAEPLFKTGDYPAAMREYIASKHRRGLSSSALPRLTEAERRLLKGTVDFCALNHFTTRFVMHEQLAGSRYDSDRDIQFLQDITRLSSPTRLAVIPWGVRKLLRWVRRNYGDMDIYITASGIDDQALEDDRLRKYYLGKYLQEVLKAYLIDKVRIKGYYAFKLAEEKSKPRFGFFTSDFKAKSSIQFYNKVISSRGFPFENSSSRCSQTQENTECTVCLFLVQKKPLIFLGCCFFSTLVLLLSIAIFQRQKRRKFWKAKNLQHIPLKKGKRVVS

[2] = target: human FGFR1c/KLB receptor complex on iLite FGF21 Assay Ready Cells (human, UniProt P11362 22-822; Q86Z14 1-1044); assay: cell-based or functional assay
human FGFR1c/KLB receptor complex on iLite FGF21 Assay Ready Cells, sequence (P11362 22-822, chain 1 of 2): as the sequence (P11362 22-822, chain 1 of 2) above
human FGFR1c/KLB receptor complex on iLite FGF21 Assay Ready Cells, sequence (Q86Z14 whole entry, chain 2 of 2): as the sequence (Q86Z14 whole entry, chain 2 of 2) above

[3] = target: cell surface receptor composed of FGFR1c and co-receptor beta-Klotho (KLB) (human, UniProt P11362 22-822; Q86Z14 1-1044); assay: cell-based or functional assay
cell surface receptor composed of FGFR1c and co-receptor beta-Klotho (KLB), sequence (P11362 22-822, chain 1 of 2): as the sequence (P11362 22-822, chain 1 of 2) above
cell surface receptor composed of FGFR1c and co-receptor beta-Klotho (KLB), sequence (Q86Z14 whole entry, chain 2 of 2): as the sequence (Q86Z14 whole entry, chain 2 of 2) above
Throughout, for Mean E max (%): reference of the scale not given here.
Throughout, for Mean E max, Luciferase reporter gene assay: reference of the scale not given here.

Binder | koff (human beta-Klotho (KLB)) | Mean E max (%) [1] | Mean EC50 [1] | Mean E max (%) [2] | Mean E max, Luciferase reporter gene assay [3] | Mean EC50 [2]
16H7 variant, light chain N26T (antibody, human IgG4 S228P, lambda, V domains shown, IgG4 backbone) VH: not shown VL: SYVLTQPPSVSVAPGQTARITCGGNTIGSESVHWYQQKPGQAPVLVVYDDSDRPSGIPERFSGSNSGNTATLTISRVEAGDEADYYCQVWDGNSDHVVFGGGTKLTVLG | 4.4e-05 s⁻¹ | 105% | 0.143 nM | – | – | –
16H7 variant, light chain D52M (antibody, human IgG4 S228P, lambda, V domains shown, IgG4 backbone) VH: not shown VL: SYVLTQPPSVSVAPGQTARITCGGNNIGSESVHWYQQKPGQAPVLVVYDDSMRPSGIPERFSGSNSGNTATLTISRVEAGDEADYYCQVWDGNSDHVVFGGGTKLTVLG | 2.4e-05 s⁻¹ | 105% | 0.144 nM | – | – | –
16H7 variant with light chain substitution R53V (antibody, V domains shown) VH: not shown VL: SYVLTQPPSVSVAPGQTARITCGGNNIGSESVHWYQQKPGQAPVLVVYDDSDVPSGIPERFSGSNSGNTATLTISRVEAGDEADYYCQVWDGNSDHVVFGGGTKLTVLG | – | – | – | 101% | – | –
16H7 variant with light chain substitution R53N (antibody, V domains shown) VH: not shown VL: SYVLTQPPSVSVAPGQTARITCGGNNIGSESVHWYQQKPGQAPVLVVYDDSDNPSGIPERFSGSNSGNTATLTISRVEAGDEADYYCQVWDGNSDHVVFGGGTKLTVLG | – | – | – | 100% | – | –
16H7 variant, light chain S55A (antibody, human IgG4 S228P, lambda, V domains shown) VH: not shown VL: SYVLTQPPSVSVAPGQTARITCGGNNIGSESVHWYQQKPGQAPVLVVYDDSDRPAGIPERFSGSNSGNTATLTISRVEAGDEADYYCQVWDGNSDHVVFGGGTKLTVLG | – | 110% | – | – | – | –
16H7 variant with light chain substitution S55A (antibody, V domains shown) VH: not shown VL: SYVLTQPPSVSVAPGQTARITCGGNNIGSESVHWYQQKPGQAPVLVVYDDSDRPAGIPERFSGSNSGNTATLTISRVEAGDEADYYCQVWDGNSDHVVFGGGTKLTVLG | – | – | – | 110% | – | –
16H7 variant, light chain D52F (antibody, human IgG4 S228P, lambda, V domains shown, IgG4 backbone) VH: not shown VL: SYVLTQPPSVSVAPGQTARITCGGNNIGSESVHWYQQKPGQAPVLVVYDDSFRPSGIPERFSGSNSGNTATLTISRVEAGDEADYYCQVWDGNSDHVVFGGGTKLTVLG | 7.9e-06 s⁻¹ | 102% | 0.105 nM | – | – | –
16H7 variant with light chain substitution P54A (antibody, V domains shown) VH: not shown VL: SYVLTQPPSVSVAPGQTARITCGGNNIGSESVHWYQQKPGQAPVLVVYDDSDRASGIPERFSGSNSGNTATLTISRVEAGDEADYYCQVWDGNSDHVVFGGGTKLTVLG | – | – | – | 105% | – | –
16H7 variant, light chain D52Y (antibody, human IgG4 S228P, lambda, V domains shown, IgG4 backbone) VH: not shown VL: SYVLTQPPSVSVAPGQTARITCGGNNIGSESVHWYQQKPGQAPVLVVYDDSYRPSGIPERFSGSNSGNTATLTISRVEAGDEADYYCQVWDGNSDHVVFGGGTKLTVLG | 9.1e-05 s⁻¹ | 102% | 0.11 nM | – | – | –
16H7 light chain variant S29Y (antibody, human IgG4 S228P, lambda, V domains shown) VH: not shown VL: SYVLTQPPSVSVAPGQTARITCGGNNIGYESVHWYQQKPGQAPVLVVYDDSDRPSGIPERFSGSNSGNTATLTISRVEAGDEADYYCQVWDGNSDHVVFGGGTKLTVLG | – | – | – | – | 102% | –
16H7 variant, light chain D52Q (antibody, human IgG4 S228P, lambda, V domains shown, IgG4 backbone) VH: not shown VL: SYVLTQPPSVSVAPGQTARITCGGNNIGSESVHWYQQKPGQAPVLVVYDDSQRPSGIPERFSGSNSGNTATLTISRVEAGDEADYYCQVWDGNSDHVVFGGGTKLTVLG | 2.7e-05 s⁻¹ | 101% | 0.107 nM | – | – | –
16H7 variant, light chain D52R (antibody, human IgG4 S228P, lambda, V domains shown, IgG4 backbone) VH: not shown VL: SYVLTQPPSVSVAPGQTARITCGGNNIGSESVHWYQQKPGQAPVLVVYDDSRRPSGIPERFSGSNSGNTATLTISRVEAGDEADYYCQVWDGNSDHVVFGGGTKLTVLG | 2.9e-05 s⁻¹ | 96% | 0.091 nM | – | – | –
16H7 variant, light chain D52N (antibody, human IgG4 S228P, lambda, V domains shown, IgG4 backbone) VH: not shown VL: SYVLTQPPSVSVAPGQTARITCGGNNIGSESVHWYQQKPGQAPVLVVYDDSNRPSGIPERFSGSNSGNTATLTISRVEAGDEADYYCQVWDGNSDHVVFGGGTKLTVLG | 6.9e-07 s⁻¹ | 115% | 0.124 nM | – | – | –
16H7 variant, light chain D52L (antibody, human IgG4 S228P, lambda, V domains shown, IgG4 backbone) VH: not shown VL: SYVLTQPPSVSVAPGQTARITCGGNNIGSESVHWYQQKPGQAPVLVVYDDSLRPSGIPERFSGSNSGNTATLTISRVEAGDEADYYCQVWDGNSDHVVFGGGTKLTVLG | 5.7e-05 s⁻¹ | 106% | 0.107 nM | – | – | –
16H7 variant, light chain D52V (antibody, human IgG4 S228P, lambda, V domains shown, IgG4 backbone) VH: not shown VL: SYVLTQPPSVSVAPGQTARITCGGNNIGSESVHWYQQKPGQAPVLVVYDDSVRPSGIPERFSGSNSGNTATLTISRVEAGDEADYYCQVWDGNSDHVVFGGGTKLTVLG | 6.9e-05 s⁻¹ | 114% | 0.125 nM | – | – | –
16H7 variant, light chain D52A (antibody, human IgG4 S228P, lambda, V domains shown, IgG4 backbone) VH: not shown VL: SYVLTQPPSVSVAPGQTARITCGGNNIGSESVHWYQQKPGQAPVLVVYDDSARPSGIPERFSGSNSGNTATLTISRVEAGDEADYYCQVWDGNSDHVVFGGGTKLTVLG | 4.8e-05 s⁻¹ | 101% | 0.163 nM | – | – | –
16H7 variant, light chain D52T (antibody, human IgG4 S228P, lambda, V domains shown, IgG4 backbone) VH: not shown VL: SYVLTQPPSVSVAPGQTARITCGGNNIGSESVHWYQQKPGQAPVLVVYDDSTRPSGIPERFSGSNSGNTATLTISRVEAGDEADYYCQVWDGNSDHVVFGGGTKLTVLG | 1.8e-05 s⁻¹ | 100% | 0.109 nM | – | – | –
16H7 light chain variant G28V (antibody, human IgG4 S228P, lambda, V domains shown) VH: not shown VL: SYVLTQPPSVSVAPGQTARITCGGNNIVSESVHWYQQKPGQAPVLVVYDDSDRPSGIPERFSGSNSGNTATLTISRVEAGDEADYYCQVWDGNSDHVVFGGGTKLTVLG | – | – | – | – | 97% | –
16H7 variant, light chain D52S (antibody, human IgG4 S228P, lambda, V domains shown, IgG4 backbone) VH: not shown VL: SYVLTQPPSVSVAPGQTARITCGGNNIGSESVHWYQQKPGQAPVLVVYDDSSRPSGIPERFSGSNSGNTATLTISRVEAGDEADYYCQVWDGNSDHVVFGGGTKLTVLG | 4e-05 s⁻¹ | 108% | 0.098 nM | – | – | –
16H7 variant, light chain D52E (antibody, human IgG4 S228P, lambda, V domains shown, IgG4 backbone) VH: not shown VL: SYVLTQPPSVSVAPGQTARITCGGNNIGSESVHWYQQKPGQAPVLVVYDDSERPSGIPERFSGSNSGNTATLTISRVEAGDEADYYCQVWDGNSDHVVFGGGTKLTVLG | < 1e-05 s⁻¹ | 123% | 0.114 nM | – | – | –
16H7 variant, light chain D52I (antibody, human IgG4 S228P, lambda, V domains shown, IgG4 backbone) VH: not shown VL: SYVLTQPPSVSVAPGQTARITCGGNNIGSESVHWYQQKPGQAPVLVVYDDSIRPSGIPERFSGSNSGNTATLTISRVEAGDEADYYCQVWDGNSDHVVFGGGTKLTVLG | 2.8e-05 s⁻¹ | 110% | 0.14 nM | – | – | –
16H7 variant, light chain D52K (antibody, human IgG4 S228P, lambda, V domains shown, IgG4 backbone) VH: not shown VL: SYVLTQPPSVSVAPGQTARITCGGNNIGSESVHWYQQKPGQAPVLVVYDDSKRPSGIPERFSGSNSGNTATLTISRVEAGDEADYYCQVWDGNSDHVVFGGGTKLTVLG | 9.2e-05 s⁻¹ | 101% | 0.117 nM | – | – | –
16H7 variant, light chain D52G (antibody, human IgG4 S228P, lambda, V domains shown, IgG4 backbone) VH: not shown VL: SYVLTQPPSVSVAPGQTARITCGGNNIGSESVHWYQQKPGQAPVLVVYDDSGRPSGIPERFSGSNSGNTATLTISRVEAGDEADYYCQVWDGNSDHVVFGGGTKLTVLG | 3.7e-05 s⁻¹ | 109% | 0.125 nM | – | – | –
16H7 variant with light chain substitution S51F (antibody, V domains shown) VH: not shown VL: SYVLTQPPSVSVAPGQTARITCGGNNIGSESVHWYQQKPGQAPVLVVYDDFDRPSGIPERFSGSNSGNTATLTISRVEAGDEADYYCQVWDGNSDHVVFGGGTKLTVLG | – | – | – | 100% | – | 0.12 nM
16H7 variant, light chain D52H (antibody, human IgG4 S228P, lambda, V domains shown, IgG4 backbone) VH: not shown VL: SYVLTQPPSVSVAPGQTARITCGGNNIGSESVHWYQQKPGQAPVLVVYDDSHRPSGIPERFSGSNSGNTATLTISRVEAGDEADYYCQVWDGNSDHVVFGGGTKLTVLG | 3.6e-05 s⁻¹ | 97% | 0.109 nM | – | – | –
16H7 light chain variant G28Q (antibody, human IgG4 S228P, lambda, V domains shown) VH: not shown VL: SYVLTQPPSVSVAPGQTARITCGGNNIQSESVHWYQQKPGQAPVLVVYDDSDRPSGIPERFSGSNSGNTATLTISRVEAGDEADYYCQVWDGNSDHVVFGGGTKLTVLG | – | – | – | – | 104% | –
